Assay results as given in patent US20200199204A1 (UNITED STATES OF AMERICA AS REPRESENTED BY THE SECRETARY …, published 2020).

Columns and labels:
Test in all cases: cell-based or functional assay
HIV-1 Env of CAP256.PI = HIV-1 Env of CAP256.PI (HIV-1)
HIV-1 Env of CAP256.SU = HIV-1 Env of CAP256.SU (HIV-1)
HIV-1 Env of 96ZM651.02 = HIV-1 Env of 96ZM651.02 (HIV-1)
HIV-1 Env of CAP210.E8 = HIV-1 Env of CAP210.E8 (HIV-1)
HIV-1 Env of CAP244.D3 = HIV-1 Env of CAP244.D3 (HIV-1)
HIV-1 Env of CAP45.G3 = HIV-1 Env of CAP45.G3 (HIV-1)
HIV-1 Env of DU156.12 = HIV-1 Env of DU156.12 (HIV-1)
HIV-1 Env of DU172.17 = HIV-1 Env of DU172.17 (HIV-1)
HIV-1 Env of DU422.01 = HIV-1 Env of DU422.01 (HIV-1)
HIV-1 Env of ZM109.4 = HIV-1 Env of ZM109.4 (HIV-1)
HIV-1 Env of ZM135.10a = HIV-1 Env of ZM135.10a (HIV-1)
HIV-1 Env of ZM197.7 = HIV-1 Env of ZM197.7 (HIV-1)
HIV-1 Env of ZM214.15 = HIV-1 Env of ZM214.15 (HIV-1)
HIV-1 Env of ZM233.6 = HIV-1 Env of ZM233.6 (HIV-1)
HIV-1 Env of ZM249.1 = HIV-1 Env of ZM249.1 (HIV-1)
HIV-1 Env of ZM53.12 = HIV-1 Env of ZM53.12 (HIV-1)
HIV-1 Env of 0260.v5.c36 = HIV-1 Env of 0260.v5.c36 (HIV-1)
HIV-1 Env of BG505.w6m = HIV-1 Env of BG505.w6m (HIV-1)
HIV-1 Env of KER2008.12 = HIV-1 Env of KER2008.12 (HIV-1)
HIV-1 Env of KER2018.11 = HIV-1 Env of KER2018.11 (HIV-1)
HIV-1 Env of MB201 = HIV-1 Env of MB201 (HIV-1)
HIV-1 Env of MB539.2B7 = HIV-1 Env of MB539.2B7 (HIV-1)
HIV-1 Env of Q168.a2 = HIV-1 Env of Q168.a2 (HIV-1)
HIV-1 Env of Q23.17 = HIV-1 Env of Q23.17 (HIV-1)
HIV-1 Env of Q259.d2.17 = HIV-1 Env of Q259.d2.17 (HIV-1)
HIV-1 Env of Q461.e2 = HIV-1 Env of Q461.e2 (HIV-1)
HIV-1 Env of Q769.d22 = HIV-1 Env of Q769.d22 (HIV-1)
HIV-1 Env of Q842.d12 = HIV-1 Env of Q842.d12 (HIV-1)
HIV-1 Env of RW020.2 = HIV-1 Env of RW020.2 (HIV-1)
HIV-1 Env of UG037.8 = HIV-1 Env of UG037.8 (HIV-1)
HIV-1 Env of 6535.3 = HIV-1 Env of 6535.3 (HIV-1)
HIV-1 Env of AC10.29 = HIV-1 Env of AC10.29 (HIV-1)
HIV-1 Env of CAAN.A2 = HIV-1 Env of CAAN.A2 (HIV-1)
HIV-1 Env of PVO.04 = HIV-1 Env of PVO.04 (HIV-1)
HIV-1 Env of QH0692.42 = HIV-1 Env of QH0692.42 (HIV-1)
HIV-1 Env of REJO.67 = HIV-1 Env of REJO.67 (HIV-1)
HIV-1 Env of RHPA.7 = HIV-1 Env of RHPA.7 (HIV-1)
HIV-1 Env of SC422.8 = HIV-1 Env of SC422.8 (HIV-1)
HIV-1 Env of THRO.18 = HIV-1 Env of THRO.18 (HIV-1)
HIV-1 Env of TRJO.58 = HIV-1 Env of TRJO.58 (HIV-1)
HIV-1 Env of TRO.11 = HIV-1 Env of TRO.11 (HIV-1)
HIV-1 Env of WITO.33 = HIV-1 Env of WITO.33 (HIV-1)
HIV-1 Env of 3016.V5.c36 = HIV-1 Env of 3016.V5.c36 (HIV-1)
HIV-1 Env of 6405.v4.c34 = HIV-1 Env of 6405.v4.c34 (HIV-1)
HIV-1 Env of C1080.c3 = HIV-1 Env of C1080.c3 (HIV-1)
HIV-1 Env of CM244.ec1 = HIV-1 Env of CM244.ec1 (HIV-1)
HIV-1 Env of CNE3 = HIV-1 Env of CNE3 (HIV-1)
HIV-1 Env of TH976.17 = HIV-1 Env of TH976.17 (HIV-1)

B1: CAP256-VRC26.27 (antibody, V domains shown)
VH: QKQLVESGGGVVQPGRSLTLSCAASQFPFSHYGMHWVRQAPGKGLEWVASITNDGTKKYHGESVWDRFRISRDNSKNTLFLQMNSLRAEDTALYFCVRDQREDECEEWWSDYYDFGKELPCRKFRGLGLAGIFDIWGHGTMVIVSS
VL: QSVLTQPPSVSAAPGQKVSISCSGNNSNIGNNFISWFQQFPGTAPKPLIYETYRRHSGIPDRFSGSKSGTSATLAITGLQTGDEADYYCATWGVRQGVGALFGTGTKVTVLG
HIV-1 Env of CAP256.PI
  IC50 (neutralization, TZM-bl): > 50 µg/mL
HIV-1 Env of CAP256.SU
  IC50 (neutralization, TZM-bl): < 0.0006 µg/mL
HIV-1 Env of 96ZM651.02
  IC50 (neutralization, TZM-bl): 0.047 µg/mL
HIV-1 Env of CAP210.E8
  IC50 (neutralization, TZM-bl): 0.002 µg/mL
HIV-1 Env of CAP244.D3
  IC50 (neutralization, TZM-bl): > 50 µg/mL
HIV-1 Env of CAP45.G3
  IC50 (neutralization, TZM-bl): 0.025 µg/mL
HIV-1 Env of DU156.12
  IC50 (neutralization, TZM-bl): 0.006 µg/mL
HIV-1 Env of DU172.17
  IC50 (neutralization, TZM-bl): 4.36 µg/mL
HIV-1 Env of DU422.01
  IC50 (neutralization, TZM-bl): 0.015 µg/mL
HIV-1 Env of ZM109.4
  IC50 (neutralization, TZM-bl): 0.027 µg/mL
HIV-1 Env of ZM135.10a
  IC50 (neutralization, TZM-bl): > 50 µg/mL
HIV-1 Env of ZM197.7
  IC50 (neutralization, TZM-bl): 0.004 µg/mL
HIV-1 Env of ZM214.15
  IC50 (neutralization, TZM-bl): 3.86 µg/mL
HIV-1 Env of ZM233.6
  IC50 (neutralization, TZM-bl): < 0.0006 µg/mL
HIV-1 Env of ZM249.1
  IC50 (neutralization, TZM-bl): 0.004 µg/mL
HIV-1 Env of ZM53.12
  IC50 (neutralization, TZM-bl): < 0.0006 µg/mL
HIV-1 Env of 0260.v5.c36
  IC50 (neutralization, TZM-bl): 2.1 µg/mL
HIV-1 Env of BG505.w6m
  IC50 (neutralization, TZM-bl): 0.102 µg/mL
HIV-1 Env of KER2008.12
  IC50 (neutralization, TZM-bl): 11.3 µg/mL
HIV-1 Env of KER2018.11
  IC50 (neutralization, TZM-bl): 0.001 µg/mL
HIV-1 Env of MB201
  IC50 (neutralization, TZM-bl): > 50 µg/mL
HIV-1 Env of MB539.2B7
  IC50 (neutralization, TZM-bl): 1.15 µg/mL
HIV-1 Env of Q168.a2
  IC50 (neutralization, TZM-bl): 0.003 µg/mL
HIV-1 Env of Q23.17
  IC50 (neutralization, TZM-bl): > 50 µg/mL
HIV-1 Env of Q259.d2.17
  IC50 (neutralization, TZM-bl): 0.005 µg/mL
HIV-1 Env of Q461.e2
  IC50 (neutralization, TZM-bl): 0.014 µg/mL
HIV-1 Env of Q769.d22
  IC50 (neutralization, TZM-bl): > 50 µg/mL
HIV-1 Env of Q842.d12
  IC50 (neutralization, TZM-bl): 10.6 µg/mL
HIV-1 Env of RW020.2
  IC50 (neutralization, TZM-bl): > 50 µg/mL
HIV-1 Env of UG037.8
  IC50 (neutralization, TZM-bl): > 50 µg/mL
HIV-1 Env of 6535.3
  IC50 (neutralization, TZM-bl): > 50 µg/mL
HIV-1 Env of AC10.29
  IC50 (neutralization, TZM-bl): > 50 µg/mL
HIV-1 Env of CAAN.A2
  IC50 (neutralization, TZM-bl): > 50 µg/mL
HIV-1 Env of PVO.04
  IC50 (neutralization, TZM-bl): 0.371 µg/mL
HIV-1 Env of QH0692.42
  IC50 (neutralization, TZM-bl): > 50 µg/mL
HIV-1 Env of REJO.67
  IC50 (neutralization, TZM-bl): > 50 µg/mL
HIV-1 Env of RHPA.7
  IC50 (neutralization, TZM-bl): > 50 µg/mL
HIV-1 Env of SC422.8
  IC50 (neutralization, TZM-bl): 4.86 µg/mL
HIV-1 Env of THRO.18
  IC50 (neutralization, TZM-bl): 1.23 µg/mL
HIV-1 Env of TRJO.58
  IC50 (neutralization, TZM-bl): > 50 µg/mL
HIV-1 Env of TRO.11
  IC50 (neutralization, TZM-bl): > 50 µg/mL
HIV-1 Env of WITO.33
  IC50 (neutralization, TZM-bl): > 50 µg/mL
HIV-1 Env of 3016.V5.c36
  IC50 (neutralization, TZM-bl): 0.006 µg/mL
HIV-1 Env of 6405.v4.c34
  IC50 (neutralization, TZM-bl): > 50 µg/mL
HIV-1 Env of C1080.c3
  IC50 (neutralization, TZM-bl): 0.149 µg/mL
HIV-1 Env of CM244.ec1
  IC50 (neutralization, TZM-bl): 0.056 µg/mL
HIV-1 Env of CNE3
  IC50 (neutralization, TZM-bl): > 50 µg/mL
HIV-1 Env of TH976.17
  IC50 (neutralization, TZM-bl): > 50 µg/mL
